Results on two molecules are retold here after publication PMC12948236.

In series [1] the target is T1, thrombin (UniProt P00734;P00734 328-363;364-622). As to the kind of experiment: AFM imaging / C-AFM; monovalent anchoring; Na+ samples: 140 mM NaCl, 40 mM Tris-acetic acid, 1 mM EDTA, 12.5 mM MgCl2, 5 mM KCl; specificity tests 5 nM origami, 100 nM protein; imaging buffer, pH and tem.
In series [2] the target is T1, thrombin. Kind of series: AFM imaging; 5 nM origami, 100 nM thrombin; empty:filled cavities 25:0; Na+ samples: 140 mM NaCl, 40 mM Tris-acetic acid, 1 mM EDTA, 12.5 mM MgCl2, 5 mM KCl; specificity tests 5 nM origami, 100 nM protein; imaging buffer, pH and tem.

B1: DNA origami with TBA15 only (20-TBA15) (mixed)
DNA: CATCTGACCTCTGTGCTGCTTTTTGGTTGGTGTGGTTGGTTTTTTCACGGTAGCACGCATAGG
modifications: 3'-C3-S-S-C3 on edge staples; none on aptamer strand
In the case of B1, the binding result with thrombin [1] is “binds”.

B2: DNA origami with four SA aptamers (20-SAA1) (mixed)
DNA: TGAATCTAACGGTGCGTATCTTTTTCTGTGAGACGACGCACCGTCGCAGGTTTTGTCTCACAGTTTTGTACCTCGGAGACCAAGTAG
modifications: 3'-C3-S-S-C3 on edge staples (gold samples); none on aptamer strand
Turning to B2, in the series with thrombin [2], the binding result is “no binding”.
